In paper doi:10.1101/800169 (bioRxiv, 2019):

B1: EccB3 (natural protein)
chain: MTGPVNPDDRRSFSSRTPVNENPDGVQYRRGFVTRHQVSGWRFVMRRIASGVALHDTRMLVDPLRTQSRAVLTGALILVTGLVGCFIFSLFRPGGVPGNNAILADRSTSALYVRVGEQLHPVLNLTSARLISGSPDNPTMVKTSEIDKFPRGNLLGIPGAPERMVQNAATDAEWTVCDAVGGANPGVTVIAGPLGADGERAAPLPPDHAVLVHSDAEPNPGDWLLWDGKRSPIDLADRAVTDALGLGGQALAPRPIAAGLFNAVPAAPALTAPVIPDAGAAPQFELSLPVPVGAVVVAYDADNTARYYAVLSDGLQPISPVLAAILRNTDSHGFAQPPRLGPDEVARTPMSRGLDTSAYPDNPVTLVEASAHPVTCAHWTKPSDAAESSLSVLSGAVLPLAEGLHTVDLVGAGAGGAANRVALTPGTGYFVQTVGAEPGSPTAGSMFWVSDTGVRYGIDTAEDDKVVAALGLSTSPLPVPWSVLSQFAAGPALSRGDALVAHDAVSTNPNSARMEASR
B2: EccD3 (natural protein)
chain: MSENTVMPIVRVAVLAAGDDGGRLTEMALPSELPLREILPAVQRIVQPARENDGAADPAAAPNPVRLSLAPIGGAPFSLDATLDTVGVVDGDLLALQAVPSGPPAPRIVEDIADAAVIFSEARRRQWGPTHIARGAALALIGLILVGTGLSVAHRVITGDLLGQFIVSGIALATVIAALAVRNRSAVLATSLAVTALVPVAAAFALGVPGDFGAPNVLLAAAGVAAWSLISMAGSPDDRGIAVFTATAVTGVGVLLVAGAASLWVISSDVIGCALVLLGLIVTVQAAQLSAMWARFPLPVIPAPGDPTPAARPLSVLADLPRRVRVSQAHQTGVIAAGVLLGVAGSVALVSSANASPWAWYIVVAAAAGAALRARVWDSAACKAWLLGHSYLLAVALLVAFVIGDRYQAALWALAALAVLVLVWIVAALNPKIASPDTYSLPMRRMVGFLATGLDASLIPVMALLVGLFSLVLDR

Columns and labels:
Experiment in all cases: cryo-EM structure
[1] = molecular target: the molecule itself
[2] = molecular target: T1, EccC3 (M. smegmatis (endogenous in M. …, UniProt A0QQ40 1-1325))
T1 sequence: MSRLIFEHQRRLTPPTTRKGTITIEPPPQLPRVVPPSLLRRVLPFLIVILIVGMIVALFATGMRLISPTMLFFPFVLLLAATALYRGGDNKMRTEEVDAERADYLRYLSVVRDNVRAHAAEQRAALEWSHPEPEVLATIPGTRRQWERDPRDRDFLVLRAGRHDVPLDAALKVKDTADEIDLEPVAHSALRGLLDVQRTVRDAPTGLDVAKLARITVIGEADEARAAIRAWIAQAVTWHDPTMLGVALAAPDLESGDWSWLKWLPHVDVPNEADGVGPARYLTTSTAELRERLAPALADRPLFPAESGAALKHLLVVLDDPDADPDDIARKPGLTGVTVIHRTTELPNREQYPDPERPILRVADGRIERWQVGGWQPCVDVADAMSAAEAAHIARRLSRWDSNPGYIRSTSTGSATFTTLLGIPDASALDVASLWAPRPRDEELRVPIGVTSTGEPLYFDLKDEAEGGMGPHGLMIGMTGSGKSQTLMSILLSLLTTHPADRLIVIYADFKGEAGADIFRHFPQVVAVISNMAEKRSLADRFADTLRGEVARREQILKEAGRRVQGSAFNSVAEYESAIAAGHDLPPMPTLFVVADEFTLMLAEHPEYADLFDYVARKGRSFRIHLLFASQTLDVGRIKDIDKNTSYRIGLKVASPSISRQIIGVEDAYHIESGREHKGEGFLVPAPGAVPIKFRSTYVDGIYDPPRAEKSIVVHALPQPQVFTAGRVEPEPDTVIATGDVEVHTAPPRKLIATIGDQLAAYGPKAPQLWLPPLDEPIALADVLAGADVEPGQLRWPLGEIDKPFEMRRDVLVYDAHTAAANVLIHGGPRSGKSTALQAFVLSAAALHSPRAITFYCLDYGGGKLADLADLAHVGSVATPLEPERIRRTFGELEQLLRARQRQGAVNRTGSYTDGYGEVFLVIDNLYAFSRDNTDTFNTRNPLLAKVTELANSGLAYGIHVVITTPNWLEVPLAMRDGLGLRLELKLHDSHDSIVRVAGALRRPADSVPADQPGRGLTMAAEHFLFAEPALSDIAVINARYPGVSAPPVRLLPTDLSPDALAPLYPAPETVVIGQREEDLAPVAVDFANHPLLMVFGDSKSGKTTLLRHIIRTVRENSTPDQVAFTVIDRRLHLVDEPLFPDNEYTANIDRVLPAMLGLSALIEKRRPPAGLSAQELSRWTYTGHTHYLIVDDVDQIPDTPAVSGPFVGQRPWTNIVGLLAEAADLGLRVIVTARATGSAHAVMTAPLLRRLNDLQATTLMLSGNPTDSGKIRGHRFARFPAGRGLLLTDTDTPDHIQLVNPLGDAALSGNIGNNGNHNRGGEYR

[3] = molecular target: B2
[4] = molecular target: B1

| Binder | binding result [1] | binding result [2] | binding result [3] | stoichiometry N [1] | binding result [4] |
| --- | --- | --- | --- | --- | --- |
| B1 | binds | binds |  |  |  |
| EccE3 (natural protein) MTARIALASLFVVAAVLAQPWQTTTQRWVLGVSIAAVIVLLAWWKGMFLTTRIGRALAMVRRNRAEDTVETDAHRATVVLRVDPAAPAQLPVVVGYLDRYGITCDKVRITHRDAGGTRRSWISLTVDAVDNLAALQARSARIPLQDTTEVVGRRLADHLREQGWTVTVVEGVDTPLPVSGKETWRGVADDAGVVAAYRVKVDDRLDEVLAEIGHLPAEETWTALEFTGSPAEPLLTVCAAVRTSDRPAAKAPLAGLTPARGRHRPALAALNPLSTERLDGTAVPLPAVVRTSVKGSVEHEAAQEAGHPA |  |  | binds |  |  |
| B2 |  | binds |  | 2 | binds |
